Data published in patent US20210355180A1 (published 2021).

Molecular target: T1, biotinylated anti-ABD goat antibody
T1 construct: also called Anti-ABD surface
Test: SPR (Biacore 2000), periplasm diluted 15x over anti-ABD surface
Text: SPR analysis of periplasmic samples: A selection of Aβ peptide binding polypeptides was subjected to an analysis of the response against biotinylated hAβ₁₋₄₀ using a Biacore 2000 instrument (GE Healthcare). Biotinylated anti-ABD goat antibody (produced in-house) and N-terminally biotinylated hAβ₁₋₄₀ (AnaSpec cat. no. AS-24648) were immobilized in separate flow cells on a streptavidin coated chip (Biacore Sensor Chip SA, cat. no. BR100032) using HBS-EP as running buffer (0.01 M HEPES pH 7.4, 0.15 M NaCl, 3 mM EDTA, 0.005% v/v Surfactant P20, GE Healthcare, cat. no. BR100188). The ligand immobilization levels on the surfaces were approximately 2000 RU for the anti-ABD antibody and 225 RU for hAβ₁₋₄₀. One flow cell surface on the chip was used as blank during analyte injections. HBS-EP was used as running buffer and the flow rate was 25 μl/min. The analytes, i.e. periplasmic preparations of Aβ peptide binding polypeptides as described above, were each diluted 15× in HBS-EP buffer and injected for 10 min, followed by dissociation in running buffer for 5 min. After dissociation, the surfaces were regenerated with 2 pulses of 10 mM glycin pH 2.0. […]
SPR analysis of periplasmic samples: The interactions of a subset of Z variants with anti-ABD goat antibody and hAβ₁₋₄₀ were analyzed in a Biacore instrument by injecting dilutions of periplasmic samples.

B1: ABD (albumin binding domain GA3 from streptococcal Protein G), periplasm control (other)
chain: LAEAKVLANRELDKYGVSDYYKNLINNAKTVEGVKALIDEILAALP
notes: periplasm containing ABD only; also called negative control
  Response RU: 19.8 RU
